Blank lines part the entries; values can stand above or below the sequence they belong to.
Columns and labels:
HLA-A*01:01 [1] = assay: IEDB peptide-MHC binding, purified MHC/direct/fluorescence; filed as Kd, often an IC50 or EC50 that approximates it; ≥ and ≤ were set here for values at or beyond the usual limits of such assays
HLA-A*02:01 [2] = assay: as above
HLA-A*03:01 [3] = assay: as above
HLA-A*24:02 = assay: as above
HLA-A*26:01 = assay: as above
HLA-A*69:01 = assay: as above
HLA-B*07:02 [4] = assay: as above
HLA-B*08:01 [5] = assay: as above
HLA-B*08:02 = assay: as above
HLA-B*15:01 [6] = assay: as above
HLA-B*18:01 = assay: as above
HLA-B*27:05 = assay: as above
HLA-B*40:01 = assay: as above
HLA-B*44:02 = assay: as above
HLA-B*46:01 = assay: as above
HLA-B*58:01 = assay: as above
HLA-A*26:02 = assay: as above
HLA-A*11:01 [7] = assay: as above
HLA-A*31:01 = assay: as above
HLA-A*01:01 [8] = assay: IEDB peptide-MHC binding, purified MHC/competitive/fluorescence; ≥ and ≤ were set here for values at or beyond the usual limits of such assays
HLA-A*02:01 [9] = assay: as above
HLA-B*15:01 [10] = assay: as above
HLA-B*07:02 [11] = assay: IEDB peptide-MHC binding, purified MHC/competitive/fluorescence; filed as Kd, often an IC50 or EC50 that approximates it; ≥ and ≤ were set here for values at or beyond the usual limits of such assays; conditions: source organism: Yersinia mollaretii ATCC 43969
HLA-B*08:01 [12] = assay: as above; conditions: source organism: Yersinia mollaretii ATCC 43969
HLA-B*51:01 = assay: as above; conditions: source organism: Yersinia mollaretii ATCC 43969
HLA-A*02:01 [13] = assay: IEDB peptide-MHC binding, purified MHC/competitive/radioactivity; ≥ and ≤ were set here for values at or beyond the usual limits of such assays; conditions: source organism: Trypanosoma cruzi
HLA-A*02:02 = assay: IEDB peptide-MHC binding, purified MHC/competitive/radioactivity; filed as Kd, often an IC50 or EC50 that approximates it; ≥ and ≤ were set here for values at or beyond the usual limits of such assays; conditions: source organism: Trypanosoma cruzi
HLA-A*02:03 = assay: as above; conditions: source organism: Trypanosoma cruzi
HLA-A*02:06 = assay: as above; conditions: source organism: Trypanosoma cruzi
HLA-A*68:02 = assay: as above; conditions: source organism: Trypanosoma cruzi
HLA-B*15:17 = assay: IEDB peptide-MHC binding, purified MHC/direct/fluorescence; filed as Kd, often an IC50 or EC50 that approximates it; ≥ and ≤ were set here for values at or beyond the usual limits of such assays; conditions: source organism: Influenza A virus (A/chicken/Hubei/wm/1997(H5N1))
HLA-B*48:01 = assay: as above; conditions: source organism: Influenza A virus (A/chicken/Hubei/wm/1997(H5N1))
HLA-B*57:01 = assay: as above; conditions: source organism: Influenza A virus (A/chicken/Hubei/wm/1997(H5N1))
HLA-A*30:01 = assay: IEDB peptide-MHC binding, purified MHC/competitive/fluorescence; filed as Kd, often an IC50 or EC50 that approximates it; ≥ and ≤ were set here for values at or beyond the usual limits of such assays; conditions: source organism: Influenza A virus (A/X-31(H3N2))
HLA-A*11:01 [14] = assay: IEDB peptide-MHC binding, purified MHC/competitive/fluorescence; ≥ and ≤ were set here for values at or beyond the usual limits of such assays
HLA-A*03:01 [15] = assay: as above; conditions: source organism: Variola virus
[16] = source organism: Influenza A virus (A/swine/Korea/S190/2004(H9N2))
[17] = source organism: Influenza A virus (A/Puerto Rico/8/34/Mount Sinai(H1N1))
[18] = source organism: Influenza A virus H3N2
[19] = source organism: Escherichia coli O157:H7
[20] = source organism: Cryptosporidium parvum
[21] = source organism: Zaire ebolavirus
[22] = source organism: Influenza A virus (A/Hong Kong/485/1997(H5N1))
[23] = source organism: Influenza A virus (A/chicken/Hubei/wm/1997(H5N1))
[24] = source organism: Vaccinia virus WR
[25] = source organism: Influenza A virus (A/chicken/Vietnam/5/2003(H5N1))
[26] = source organism: Influenza A virus(A/swine/Henan/3/2004(H9N2))

Sequence: ATTHSWIPK
Kd (HLA-A*01:01 [1]; [16]): ≥ 20 µM
Kd (HLA-A*02:01 [2]; [16]): ≥ 20 µM
Kd (HLA-A*03:01 [3]; [17]): 0.826 µM
Kd (HLA-A*24:02; [16]): ≥ 20 µM
Kd (HLA-A*26:01; [18]): ≥ 20 µM
Kd (HLA-A*69:01; [16]): ≥ 20 µM
Kd (HLA-B*07:02 [4]; [16]): ≥ 20 µM
Kd (HLA-B*08:01 [5]; [16]): ≥ 20 µM
Kd (HLA-B*08:02; [18]): ≥ 20 µM
Kd (HLA-B*15:01 [6]; [16]): ≥ 20 µM
Kd (HLA-B*18:01; [16]): ≥ 20 µM
Kd (HLA-B*27:05; [16]): ≥ 20 µM
Kd (HLA-B*40:01; [16]): ≥ 20 µM
Kd (HLA-B*44:02; [16]): ≥ 20 µM
Kd (HLA-B*46:01; [16]): ≥ 20 µM
Kd (HLA-B*58:01; [16]): ≥ 20 µM

Sequence: FCIKVLCPY
Kd (HLA-A*26:02; source organism: West Nile virus SPU116/89): 0.096 µM

Kd (HLA-A*01:01 [1]; [19]): ≥ 20 µM
Kd (HLA-A*02:01 [2]; [19]): 5.7 µM
Kd (HLA-A*03:01 [3]; [19]): ≥ 20 µM
Kd (HLA-A*24:02; [19]): ≥ 20 µM
Kd (HLA-B*07:02 [4]; [19]): ≥ 20 µM
Kd (HLA-B*15:01 [6]; [19]): ≥ 20 µM
Kd (HLA-B*18:01; [19]): ≥ 20 µM
Kd (HLA-B*27:05; [19]): ≥ 20 µM
Kd (HLA-B*40:01; [19]): ≥ 20 µM
Kd (HLA-B*44:02; [19]): ≥ 20 µM
Kd (HLA-B*46:01; [19]): ≥ 20 µM
Kd (HLA-B*58:01; [19]): ≥ 20 µM
Sequence: PILPKLFIL

Sequence: IINAHRIPK
Kd (HLA-A*01:01 [1]; [20]): ≥ 20 µM
Kd (HLA-A*03:01 [3]; [20]): 0.0825 µM
Kd (HLA-A*11:01 [7]; [20]): 0.0267 µM
Kd (HLA-A*24:02; [20]): ≥ 20 µM
Kd (HLA-A*26:01; source organism: Cryptosporidium parvum Iowa II): ≥ 20 µM
Kd (HLA-A*31:01; [20]): 0.0316 µM
Kd (HLA-A*69:01; [20]): ≥ 20 µM
Kd (HLA-B*07:02 [4]; [20]): ≥ 20 µM
Kd (HLA-B*15:01 [6]; [20]): ≥ 20 µM
Kd (HLA-B*18:01; [20]): ≥ 20 µM
Kd (HLA-B*27:05; [20]): ≥ 20 µM
Kd (HLA-B*40:01; [20]): ≥ 20 µM
Kd (HLA-B*44:02; [20]): ≥ 20 µM
Kd (HLA-B*58:01; [20]): ≥ 20 µM

Sequence: LLQLNETIY
IC50 (HLA-A*01:01 [8]; [21]): ≥ 88.9 µM
IC50 (HLA-A*02:01 [9]; [21]): ≥ 78.3 µM
IC50 (HLA-B*15:01 [10]; [21]): 3.16 µM

Sequence: MPMYAIHKV
Kd (HLA-B*07:02 [11]): 0.0267 µM
Kd (HLA-B*08:01 [12]): 1.87 µM
Kd (HLA-B*51:01): 1.14 µM

Sequence: QMRDVLGTF
Kd (HLA-A*01:01 [1]; [22]): ≥ 20 µM
Kd (HLA-A*02:01 [2]; [22]): ≥ 20 µM
Kd (HLA-A*03:01 [3]; [22]): ≥ 20 µM
Kd (HLA-A*11:01 [7]; [22]): ≥ 20 µM
Kd (HLA-A*24:02; [22]): ≥ 20 µM
Kd (HLA-A*26:01; source organism: Influenza A virus (A/Hong Kong/507/97(H5N1))): 0.135 µM
Kd (HLA-A*31:01; [22]): ≥ 20 µM
Kd (HLA-B*07:02 [4]; [17]): 0.381 µM
Kd (HLA-B*15:01 [6]; [17]): 0.066 µM
Kd (HLA-B*27:05; [22]): ≥ 20 µM
Kd (HLA-B*40:01; [22]): ≥ 20 µM
Kd (HLA-B*44:02; [22]): ≥ 20 µM
Kd (HLA-B*58:01; [22]): ≥ 20 µM

Sequence: FLDPATTTS
IC50 (HLA-A*01:01 [8]; [21]): ≥ 145 µM
IC50 (HLA-A*02:01 [9]; [21]): 1.78 µM

Sequence: LLGLWGTAAL
IC50 (HLA-A*02:01 [13]): 0.499 µM
Kd (HLA-A*02:02): 0.00193 µM
Kd (HLA-A*02:03): 0.00721 µM
Kd (HLA-A*02:06): 1.26 µM
Kd (HLA-A*68:02): 8.19 µM

Sequence: EKPKFLPDL
Kd (HLA-A*01:01 [1]; [23]): ≥ 20 µM
Kd (HLA-A*02:01 [2]; [23]): ≥ 20 µM
Kd (HLA-A*03:01 [3]; [23]): ≥ 20 µM
Kd (HLA-A*11:01 [7]; [23]): ≥ 20 µM
Kd (HLA-A*26:01; [23]): ≥ 20 µM
Kd (HLA-A*26:02; source organism: Influenza A virus (A/Taiwan/2/2006(H1N1))): ≥ 20 µM
Kd (HLA-A*31:01; [23]): ≥ 20 µM
Kd (HLA-A*69:01; [23]): ≥ 20 µM
Kd (HLA-B*07:02 [4]; [23]): ≥ 20 µM
Kd (HLA-B*15:01 [6]; [23]): ≥ 20 µM
Kd (HLA-B*15:17): ≥ 20 µM
Kd (HLA-B*18:01; [23]): ≥ 20 µM
Kd (HLA-B*27:05; [23]): ≥ 20 µM
Kd (HLA-B*40:01; [23]): ≥ 20 µM
Kd (HLA-B*46:01; [23]): ≥ 20 µM
Kd (HLA-B*48:01): ≥ 20 µM
Kd (HLA-B*57:01): ≥ 20 µM
Kd (HLA-B*58:01; [23]): ≥ 20 µM
Kd (HLA-A*30:01): ≥ 20 µM

Sequence: ETVEWALKF
Kd (HLA-A*26:01; source organism: Orthohantavirus dobravaense): 0.0032 µM
Kd (HLA-A*26:02; source organism: Kurkino virus): ≤ 0.001 µM

Sequence: FTEQAFYTR
IC50 (HLA-A*01:01 [8]; [24]): 26.3 µM
IC50 (HLA-A*11:01 [14]; [24]): 17.7 µM

Sequence: LSLTKLFSY
IC50 (HLA-A*01:01 [8]; source organism: Variola virus): 3.71 µM
IC50 (HLA-A*02:01 [9]; source organism: Variola virus): ≥ 103 µM
IC50 (HLA-A*03:01 [15]): 18.9 µM
IC50 (HLA-A*11:01 [14]; source organism: Variola virus): 4.13 µM
IC50 (HLA-B*15:01 [10]; source organism: Variola virus): 15.5 µM

Sequence: RVDKLTQGR
Kd (HLA-A*01:01 [1]; [25]): ≥ 20 µM
Kd (HLA-A*02:01 [2]; [25]): ≥ 20 µM
Kd (HLA-A*03:01 [3]; [17]): ≥ 10 µM
Kd (HLA-A*24:02; [25]): ≥ 20 µM
Kd (HLA-A*26:01; [26]): ≥ 20 µM
Kd (HLA-A*69:01; [25]): ≥ 20 µM
Kd (HLA-B*07:02 [4]; [25]): ≥ 20 µM
Kd (HLA-B*08:01 [5]; [25]): ≥ 20 µM
Kd (HLA-B*08:02; [26]): ≥ 20 µM
Kd (HLA-B*15:01 [6]; [25]): ≥ 20 µM
Kd (HLA-B*18:01; [25]): ≥ 20 µM
Kd (HLA-B*27:05; [25]): ≥ 20 µM
Kd (HLA-B*40:01; [25]): ≥ 20 µM
Kd (HLA-B*44:02; [25]): ≥ 20 µM
Kd (HLA-B*46:01; [25]): ≥ 20 µM
Kd (HLA-B*58:01; [25]): ≥ 20 µM

From the Immune Epitope Database (IEDB)
